Laboratory results taken from US20110165265A1, “TRAIL VARIANTS FOR TREATING CANCER” (FUNDACIÓ GENÒMICA (CRG), priority 2007, published 2011).
Entries after “also recorded” stand apart in the source; their conditions may differ.

T1: DcR2 (Homo sapiens, UniProt Q9UBN6)
T1 construct: soluble, recombinant DcR1-Ig (sDcR1) and DcR2-Ig (sDcR2); purchased R&D Systems
T1 sequence (Q9UBN6 56-211 limits assumed): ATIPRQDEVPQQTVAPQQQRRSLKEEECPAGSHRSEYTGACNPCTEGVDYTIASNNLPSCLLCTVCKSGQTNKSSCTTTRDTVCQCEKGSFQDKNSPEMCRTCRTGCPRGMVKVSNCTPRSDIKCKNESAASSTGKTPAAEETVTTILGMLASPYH

T2: DcR1 (Homo sapiens, UniProt O14798)
T2 construct: soluble, recombinant DcR1-Ig (sDcR1) and DcR2-Ig (sDcR2); purchased R&D Systems
T2 sequence (O14798 26-236 limits assumed): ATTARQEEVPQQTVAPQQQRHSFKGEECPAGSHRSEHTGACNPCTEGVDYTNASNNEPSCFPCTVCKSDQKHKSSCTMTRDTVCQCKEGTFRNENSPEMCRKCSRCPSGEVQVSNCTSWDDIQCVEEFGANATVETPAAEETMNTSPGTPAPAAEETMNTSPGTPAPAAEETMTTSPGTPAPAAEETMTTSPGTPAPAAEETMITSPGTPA

B1: wtTRAIL: wild-type soluble recombinant human TRAIL, amino acids 114-281 (SEQ ID NO: 3) (protein, listed as Homo sapiens)
chain: MVRRGRVAAHTGTRGRSNTSSNSKNKAGRKNSWSSRSGHSSNHRNGVHKGYYYSTYRKNTKNDKMVYYKYTSYDMKSARNSCWSKDAYGYSYGGKNDRVSVTNHDMDHASGAVG
modifications: TRAIL 114-281
B2: D269HE195R: rhTRAIL (114-281) carrying mutations D269H and E195R; DR5-selective TRAIL variant (protein)
chain: MVRERGPQRVAAHITGTRGRSNTLSSPNSKNEKALGRKINSWESSRSGHSFLSNLHLRNGELVIHEKGFYYIYSQTYFRFQERIKENTKNDKQMVQYIYKYTSYPDPILLMKSARNSCWSKDAEYGLYSIYQGGIFELKENDRIFVSVTNEHLIDMHHEASFFGAFLVG

What was measured:
Colo205 cells [1] = assay: Colo205 apoptosis after pre-incubation of ligand with soluble receptor-Ig; type: cell-based, human; conditions: 10 ng/ml ligand; for effect of pre-incubation with sDcR1 on pro-apoptotic activity: sDcR1 up to 2 μg/ml
Method: (A) Effect of soluble recombinant DcR1-Ig (sDcR1) on apoptosis induction by TRAIL and DR5-selective variants. […] All graphs are representatives of two independent repeats. (D) Neutralizing antibodies against DcR1 and DcR2 can augment wtTRAIL- but not DR5-variant induced cell death. […] Induction of apoptosis was measured 3 h post-treatment using Annexin V assay. […] The graphs show the average±SEM of three independent experiments.
Induction of cell death was assessed by Annexin V assay 3 h after treatment (FIG. 14), as described above. […] (FIG. 14C). This confirms that the observed differences in blocking efficacy are due to reduced ability of the decoy receptors to bind and inhibit D269H and D269HE195R.

DR5 [2] = biological target: T3, DR5 (Homo sapiens, UniProt O14763); conditions: surface plasmon resonance; read-out: binding affinity Kd for DR5; cited from earlier work
T3 construct: Effect of soluble recombinant DR5-Ig (sDR5) on apoptosis induction

[3] = acknowledged value; cited from earlier work
Colo205 tumors = Colo205 tumors in athymic nude mice; type: in vivo; conditions: 1 and 5 mg/kg IP
VACO-235 and VACO330 = assay: Sensitivity of colon adenoma cell lines; type: cell-based, human; conditions: 96 hours
Method: The colon adenoma cell lines VACO-235 and VACO330 were treated with TRAIL or D269H/E195R for 96 hours. […] Sensitivity could be further enhanced using TRAIL or D269H/E195R in combination with the cdk inhibitor roscovitine.

A2780 cells [4] = assay: Sensitivity of ovarian carcinoma cell line A2780 (Example 4); type: cell-based, human
Text: The ovarian carcinoma cell line A2780 expresses very low levels of DR4, and high levels of the other three membrane-bound TRAIL receptors. Sensitivity of these cells to wild type TRAIL and the DR5-specific variant was compared initially as a single agent. The sensitivity pattern is illustrated in the Table 6, with + indicating minimally sensitive, ++ moderately sensitive and +++ very sensitive.

DR4 = biological target: T4, DR4 (Homo sapiens, UniProt O00220); assay: SPR binding to immobilized DR4-Ig; conditions: pre-steady state SPR
T4 construct: the more commonly used dimeric TRAIL-receptor-IgG Fc chimeric constructs
T4 sequence (O00220 24-239 limits assumed): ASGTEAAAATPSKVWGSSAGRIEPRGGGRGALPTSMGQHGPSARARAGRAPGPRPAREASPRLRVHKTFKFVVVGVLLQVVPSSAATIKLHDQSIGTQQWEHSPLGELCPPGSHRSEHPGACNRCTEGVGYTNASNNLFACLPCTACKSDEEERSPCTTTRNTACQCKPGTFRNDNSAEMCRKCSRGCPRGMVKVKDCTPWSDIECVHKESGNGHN
Text: In other experiments dissociation was continued for periods of up to 2,000 sec, with similar results. As a consequence it is essentially impossible to obtain a dissociation rate constant and thus to calculate the affinity from the association and dissociation rate constants. We therefore chose to use the pre-steady state approach to analyse the data^10. […] With these two changes this variant has become an TRAIL variant that binds to DR5 with high selectivity and affinity.

DcR2 = biological target: T1, DcR2; assay: SPR receptor binding assay, immobilized DcR2-Ig; conditions: 0.1-250 nM ligand
Method: (§1) The response data (in response units) as a function of TRAIL concentration were fitted using a four parameter equation to give an apparent pre-steady state affinity constant.
(§2) Binding experiments were performed at 37° C. using a surface plasmon resonance-based biosensor (Biacore 3000, Biacore AB, Uppsala, Sweden) as previously described^10. In short, DcR1-Ig and DcR2-Ig receptor chimeras (R&D Systems) were captured at a 35 μl/min flow rate using a protein A (Sigma) modified CM5 sensor chip (Biacore). Receptor chimeras were captured at a level of ˜500-800 response units (RU). […] Binding of ligands to the receptors was monitored in real-time. Between injections the protein A sensor surface was regenerated using a 30s pulse of 0.1 M glycine 0.5 M NaCl pH 3. Due to the very slow dissociation of the TRAIL-receptor complex, only pre-steady state binding data could be obtained. In order to obtain data that represent proper high-affinity complex formation, the response at each concentration was recorded 30 sec after the end of the injection. The response data (in response units) as a function of TRAIL concentration were fitted using a four parameter equation to give an apparent pre-steady state affinity constant.
(§3) Affinity of the ligands was assessed by measuring receptor binding in a concentration range of 0.1-250 nM.

BJAB cells = assay: Cytotoxicity in BJAB cells; type: cell-based
Colo205 cells [5] = assay: Annexin V apoptosis assay in Colo205; type: cell-based, human; conditions: Colo205, 3 h
Method: Colo205 cells express all four TRAIL receptors, and are sensitive to TRAIL-induced apoptosis, which is mediated predominantly via DRS in these cells^10. […] Induction of cell death was measured by Annexin V assay, wherein externalization of phosphatidyl serine (PS) on the plasma membrane of apoptotic cells was detected using Annexin V-FITC (IQ Corporation, Groningen, The Netherlands). Briefly, cells were trypsinized and were then collected by centrifugation at 400 g, washed in ice-cold calcium buffer (10 mM HEPES/NaOH, pH 7.4, 140 mM NaCl, 2.5 mM CaCl2) and incubated with Annexin V-FITC for 15 min in the dark prior to acquisition on a FACSCalibur flow cytometer (Becton Dickinson).

DcR1 = biological target: T2, DcR1; assay: SPR receptor binding assay, immobilized DcR1-Ig; conditions: 0.1-250 nM ligand
Method: as §1, §2, §3

DR5 [6] = biological target: T3, DR5; assay: SPR binding to immobilized DR5-Ig
A2780 cells [7] = assay: MTT cytotoxicity in A2780 (Example 6); type: cell-based; conditions: A2780 (FIG. 8E)

| Molecule | effect of pre-incubation with sDcR2 on apoptosis induction (Colo205 cells [1]) | effect of pre-incubation with soluble DR5 on pro-apoptotic activity (Colo205 cells [1]) | effect of pre-incubation with sDcR1 on pro-apoptotic activity (Colo205 cells [1]) | Kd (DR5 [2]) | half life [3] | anti-tumor effect, single therapy (Colo205 tumors) | sensitivity of adenoma cell lines (VACO-235 and VACO330) | efficacy in combination with Cisplatin (A2780 cells [4]) | sensitivity compared to wild type TRAIL, single agent (A2780 cells [4]) | affinity for DR4-Ig compared to wtTRAIL (DR4) | binding toward DcR2 compared to wtTRAIL (DcR2) | cell death induction (BJAB cells; BJABDR5 DEF cells) | cytotoxic potential (BJAB cells; BJABDR5 DEF+DR5 cells) | cell death induction (BJAB cells; BJABwt cells) | increase in apoptosis / cytotoxic potential compared to wtTRAIL (based on IC50) (Colo205 cells [5]) | increase in apoptosis / cytotoxic potential compared to wtTRAIL (based on IC50) (Colo205 cells [5]; listed as D269H/E195R) | binding towards DcR1, reduction compared to wtTRAIL (DcR1) | increase in association rate constant (kon) for binding to DR5 compared to wtTRAIL (DR5 [6]) | affinity for DR5-Ig compared to wtTRAIL (DR5 [6]; pre-steady state SPR) | cytotoxic activity compared with wild-type TRAIL (A2780 cells [7]) |
| --- | --- | --- | --- | --- | --- | --- | --- | --- | --- | --- | --- | --- | --- | --- | --- | --- | --- | --- | --- | --- |
| B1 | able to block apoptosis induction | completely block | completely blocked | 7.2 nM | approximately 30 minutes | neither of the two concentrations of wtTRAIL give an anti-humor effect; also recorded: do not give an anti-tumor effect | – | – | – | – | – | – | – | – | – | – | – | – | – | – |
| B2 | no complete protection could be achieved | – | failed to reduce | – | – | – | more sensitive to D269H/E195R | higher efficacy than wtTRAIL | increased sensitivity | almost abolished | reduced | unable to induce significant cell death | restored | able to induce cell death | 2.7-4.2 fold | 3.3-4.2 fold | approximately 20 fold | less than 5 fold | increased several fold | significantly increased |
